Reference: the supplement of paper PMC9170038

Test system: MS2 coat protein
Experiment: apparent KD of MS2 coat protein; designed switch direction (-1 OFF switch, 1 ON switch): -1; higher = weaker reporter binding
In short: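 The apparent KD reported per design is the median over clusters of curve fits to normalised cluster fluorescence. The RNA switches were transcribed on Illumina chips by stalled E. coli RNA polymerase. SNAP-549-labelled MS2 coat protein was titrated from 0.7 or 1.5 nM, doubling up to 3 µM, in Tris-HCl pH 7.5 buffer containing KCl, MgCl2, BSA, DTT, tRNA and Tween-20, with no input, 200 uM small-molecule ligand, or an oligonucleotide input.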

[1] = input ligand: microRNA oligo, concentration not stated
[2] = Eterna round: R95, input ligand: FMN 200 uM
[3] = Eterna round: R95, input ligand: microRNA oligo, concentration not stated
[4] = Eterna round: R95, input ligand: none

Row | Sequence | apparent KD of MS2 coat protein (input ligand: FMN 200 uM) | apparent KD of MS2 coat protein [1] | apparent KD of MS2 coat protein (input ligand: none) | apparent KD of MS2 coat protein [2] | apparent KD of MS2 coat protein [3] | apparent KD of MS2 coat protein [4]
1 | CUGCUGGAGCUUUGCUUUAGUCGUACAUGAGGAUCACCCAUGUAGGAUAUGGUAGGCUUUGCUUACUAGAAGGAUAGAGUGAUC [salish99_ExNG3_r04_605] (Eterna round: R96, puzzle: Exclusion NG 3) | 0.289 µM | 0.0628 µM | 0.0942 µM | – | – | –
2 | CAGAAACAUGAGGAUCACCCAUGUGAGGAUAUGAAAAAGAAAAGAAAAGAAAGAAGAAUCAGAAGGCACAAAGA [salish99-ex1_r3_085] (puzzle: Exclusion 1) | – | – | – | 0.0313 µM | 0.0239 µM | 0.0318 µM
3 | AGAUAACAUGAGGAUCACCCAUGUCAGGAUAUCGACUGAACAGCUUCGGCUGUUCAGUCGAGAAGGGACAAUUA [Brourdxlusion 9 - Jieux - Exclusion 1] (Eterna round: R97, puzzle: Exclusion 1) | 0.0841 µM | – | 0.0612 µM | – | – | –
4 | CCGAGGUAGCGGUCCUAUGACAUGAGGAUCACCCAUGUACCUCGCUACGAGCUUUUUGCUCGUCAUAUAAUUCUCGG [Mat - Sensor v3 - turn-off var 1 - JL Mod - D30] (Eterna round: R96, puzzle: Sensor v3, turn-off variant 1) | 0.0568 µM | 0.0497 µM | 0.0613 µM | – | – | –
5 | UCCGCGCGCUUGCGCGCGGACAUGAGGAUCACCCAUGUCGGGCUUUUUGCUCGUUUUGUUGCGCGCGUUCGCGCGCG [Revision to Olbi_3 by Sunset] (Eterna round: R97, puzzle: Sensor, turn-off variant 1) | 0.0891 µM | – | 0.101 µM | – | – | –
6 | AGUGUGUGGCAGGAUAUGCUGUUGAUUGGUGGAGCAGAAGGGUCUACAUGAGGAUCACCCAUGUAAGCGGUUGA [Ex6 #30] (Eterna round: R97, puzzle: Exclusion 6) | 0.125 µM | – | 0.0365 µM | – | – | –
7 | GAUUAAUGCAAGGAUAUGCUAUUAAUUUAUUUUGCAGAAGGUGCAACAUGAGGAUCACCCAUGUUGGAGGGUAU [JR_E6_Sub027] (Eterna round: R96, puzzle: Exclusion 6) | 0.0349 µM | 0.0178 µM | 0.0251 µM | – | – | –
8 | UUAGAUUGAGGAUAUACAUGAGGAUCACCCAUGUCGAUACCAAUGGUGUUGACCGUCAGUAGAAGGCGAAUUGA [Eternabot (L1) Solution 87] (Eterna round: R97, puzzle: Exclusion 3) | 0.163 µM | – | 0.123 µM | – | – | –
9 | UAUUAGCAAGCGAGAUCCCACAUGAGGAUCACCCAUGUGCUCGUCUUAUAAAGUACUGUGACGAAAGUCACGGUACG [Mat - Sensor, turn-off var - Eli Mod - D10] (Eterna round: R97, puzzle: Sensor, turn-off variant 1) | 0.0151 µM | – | 0.0146 µM | – | – | –
10 | CGUAUGUGAGGAUAUGACAAUGGUAUCUUCGGAUACCAUUGUCAGAAGGAACAUGAGGAUCACCCAUGUAGAUC (puzzle: Exclusion 4) | – | – | – | – | 0.0448 µM | –
11 | AAGAAACAUGAGGAUCACCCAUGUGAGGAUAUGAUAAAGAAAAGAAAAGAAAGAAGACUCAGAAGGCACAAAGG [salish99-ex1_r3_041] (puzzle: Exclusion 1) | – | – | – | 0.031 µM | 0.0267 µM | 0.0289 µM
12 | AGUAUGUCAGGAUAUCUCGGGUAGUCGACAACGGCUACCGAAGAGAAGGGACAUGAGGAUCACCCAUGUACCAU [EX4 B.26] (Eterna round: R97, puzzle: Exclusion 4) | 0.0283 µM | – | 0.0249 µM | – | – | –
13 | CCCACAGGACAUGAGGAUCACCCAUGUGCGAUAUCCUGAGCGCAGGAUAUUUUCCCACGAAAGGAAGAGAAGGGCGCCGAAAGC [Eternabot solution 1] (Eterna round: R96, puzzle: Exclusion NG 3) | 0.0246 µM | 0.0296 µM | 0.0443 µM | – | – | –
14 | CUGUUUUCCGCAGGAUAUGCUCCUCCAUUAUUUGCAGAAGGGCGUUGAACAUGAGGAUCACCCAUGUAUGGAAAUGACUAUUGC [JR_ExcNG1_Sub069] (Eterna round: R96, puzzle: Exclusion NG 1) | 0.0195 µM | 0.0112 µM | 0.0165 µM | – | – | –
15 | UUAUACGUUGAGGAUAUGCGAUUUAGUAUAGUUGCAGAAGGCGAUACAUGAGGAUCACCCAUGUUUAUGGGCAU [LRO-Ex6-07] (puzzle: Exclusion 6) | – | – | – | 0.394 µM | 0.269 µM | 0.259 µM
16 | UGAUUGAUUAACAGAUUAUACAUGAGGAUCACCCAUGUAGGUCCUACGUGCACUUUAUGCAGCUCGUCUUAUUCCCA [Sensor-V1 #71] (Eterna round: R97, puzzle: Sensor, turn-off variant 1) | 0.0344 µM | – | 0.0365 µM | – | – | –
17 | UGGCAAGUAGGAUAUUGGGUGUGGGACAUGAGGAUCACCCAUGUGAUCACUCAAUCUCUCCGAGAAGGGCUAAGAA [Araes] (puzzle: Exclusion 5) | – | – | – | – | 0.014 µM | –

Row | Sequence | apparent KD of MS2 coat protein (input ligand: FMN 200 uM) | apparent KD of MS2 coat protein [1] | apparent KD of MS2 coat protein (input ligand: none) | apparent KD of MS2 coat protein [2] | apparent KD of MS2 coat protein [3] | apparent KD of MS2 coat protein [4]
18 | GCAGCAACUCUAAUCAAACCAACAUGAGGAUCACCCAUGUCUCAGGAUAUGGUCUGGAUUACAGGCCAGAAGGGAGAAAGCUGC [Eli exng3 - 047] (Eterna round: R96, puzzle: Exclusion NG 3) | 0.0116 µM | 0.0114 µM | 0.0149 µM | – | – | –
19 | GUAUAUAGUGUGAGGAUAUGCUGGUCCUUGGAUCAGCAGAAGGCACAUGAGGAUCACCCAUGUAGUUUAUUUUG [Mat - Exclusion 4 - JL Mod - D7] (puzzle: Brourd's mod of Exclusion 4) | – | – | – | – | 0.0162 µM | –
20 | CAUACUCAAGUCAGGAUAUAGACUCGGAUACGGAUCUAGAAGGGACAUGAGGAUCACCCAUGUAGAGAGUAAAG [EX-4 Malc #26] (puzzle: Brourd's mod of Exclusion 4) | – | – | – | 0.0609 µM | 0.0281 µM | 0.025 µM
21 | GUCUACCAGCUAGGAUAUGCAGUACAUUAAAAUGUAGAAGGAGCACGAUCCAGACAUGAGGAUCACCCAUGUGGGCGGUAGGCA [Aques] (Eterna round: R96, puzzle: Exclusion NG 1) | – | 0.0156 µM | – | – | – | –
22 | GAUUCGCGAGGAUAUACAGUCGAGUCCAUUACGUGUCUCGGACUUGAGGAUCACCCAAGUAGAAGGCGUCUCAU [salish99_ex2_r4_637] (Eterna round: R97, puzzle: Exclusion 2) | 0.0558 µM | – | 0.0578 µM | – | – | –
23 | GUAAUUAAUGUAGGAUAUGCAAGGCGAAACAUGAGAGAAGGCCAUGUGGAUCACCCAUGUAAUGCGGUCUGCGUACAGAUCGCU [salish99_ExNG1_r4_003] (Eterna round: R96, puzzle: Exclusion NG 1) | 0.038 µM | 0.0161 µM | 0.0655 µM | – | – | –
24 | GCAGAAUGAGUUAGGAUAUGAUGAUUUUUCGGAAAUCAGAAGGAACUUGAGGAUCACCCAAGUUAAGAUAGGGU [JR_BMEx4_Sub065] (Eterna round: R97, puzzle: Brourd's mod of Exclusion 4) | 0.229 µM | – | 0.085 µM | – | – | –
25 | GGUGAAGCAGGAUAUGUAUCGAUAUACAUGAGGAUCACCCAUGUCAUGUAGAAACCGCAUAUAGAAGGGCUUCACC [Exclusion 5 (FMN-MS2 slide v.6)] (Eterna round: R97, puzzle: Exclusion 5) | 0.163 µM | – | 0.0474 µM | – | – | –
26 | UCCUCCUAAGGAUAUGCGUCGGUUGAACUAUGCUAAAAGGGACAUGAGGAUCACCCAUGUAGAAGGUAGGGCAG [Eternabot (L2) Solution 86] (Eterna round: R97, puzzle: Exclusion 2) | 0.0725 µM | – | 0.0488 µM | – | – | –
27 | AAUAAUAAGGAGGAUAUCGUAACCGAAAGGUUACGAGAAGGCCUAACAUGAGGAUCACCCAUGUUCCUCAAUAA [Mat - Exclusion 6 - Eli Mod - D56] (puzzle: Exclusion 6) | – | – | – | 0.468 µM | 0.186 µM | 0.389 µM
28 | AGUAACAGAGGAUAUACUAUUUUAUGUGUUUAUUGUUUUAAACAUGAGGAUCACCCAUGUAGAAGGCUGAAUAA [JMF 86] (puzzle: Exclusion 2) | – | – | – | – | 0.0284 µM | –
29 | AGCCGUCUAGGAUAUACAUAAGAUCGGCAGUCUCCGUCGAGACAUGAGGAUCACCCAUGUAGAAGGAGGCGGGA [EX2 A.22] (Eterna round: R97, puzzle: Exclusion 2) | 0.208 µM | – | 0.0472 µM | – | – | –
30 | CACCGUUAGUGAGGAUAUCGUACAUGAGGAUCACCCAUGUAAUAAAUGAGAAUUUCGGAUGUAUGCGAGAAGGCACAAAUCGGC [Ostracism 40 - Jieux - Exclusion NG 2] (Eterna round: R96, puzzle: Exclusion NG 2) | 0.0371 µM | 0.0347 µM | 0.0452 µM | – | – | –
31 | GCGCCAUCGUGAGAUGGCGUACCGACAUGAGGAUCACCCAUGUAGGAUAUCGAUUGCUUUGCAGUCGAGAAGGGCGUGAUAAGU [JL ENG3 3.74] (Eterna round: R96, puzzle: Exclusion NG 3) | 0.0278 µM | 0.0247 µM | 0.0295 µM | – | – | –
32 | AGUUGUUGUUUCCGUUCUUACAUGAGGAUCACCCAUGUUUCUUGUCGUGCUCGCGUUGCUCGUCUGGCUGCCUGUUG [salish99_TOv1_r3_069] (puzzle: Sensor v3, turn-off variant 1) | – | – | – | 0.0407 µM | 0.0352 µM | 0.0533 µM
33 | CAGGUGUUAGGAUAUCGGAGAUCGAGACCGACGGGAUGAGCCGAGAAGGAACAUGAGGAUCACCCAUGUAGGUG [JR_Exclu4_Sub034] (puzzle: Exclusion 4) | – | – | – | 0.166 µM | 0.4 µM | 0.414 µM
